Test results published in patent CN117643628A (SHANGHAI JUNSHI BIOSCIENCES CO LTD; JUNMENG BIOSCIENCES CO …, dated 2024).

Target: SARS-COV-2野生型毒株Spike蛋白的RBD (SARS-COV-2野生型毒株, UniProt P0DTC2 319-541)
Assay: BLI (Octet), antibody captured on Protein A probes, RBD at 15 nM and 60 nM in solution

B1: HUR33变体 (antibody, human IgG1, kappa, V domains shown)
VH: QVQLVQSGSELKKPGASVKVSCKASGYTFTDYGMNWVRQAPGQGLEWMGWINTYSGEPTYADDFRGRFVFSLDTSVSTAYLQISSLKAEDTAVYYCARGGNWDWYFDVWGQGTLVTVSS
VL: DIQMTQSPSSLSASVGDRVTITCRASQSVSNFLHWYQQKPGKAPKLLIYYASQSISGVPSRFSGSGSGTDFTLTISSLQPEDFATYYCQQSNTWPLTFGQGTKLEIKR
notes: also called HUR33-1; HUR33 variant
- binding result: binds
